Laboratory results published in patent US20190218304A1, “POTENTIATING THE EFFECT OF ATP RELEASE” (INNATE PHARMA, priority 2017, published 2019).
“Also recorded” adds a separate entry of the source.

Columns and labels:
[1] = target: T1, soluble recombinant human CD39 protein (Homo sapiens, UniProt P49961); experiment: Inhibition of the enzymatic activity of soluble CD39 (Cell Titer Glo); format: biochemical
T1 construct: made in house; host or cells: CHO cells
T1 sequence (P49961 with tags, fused parts or gaps): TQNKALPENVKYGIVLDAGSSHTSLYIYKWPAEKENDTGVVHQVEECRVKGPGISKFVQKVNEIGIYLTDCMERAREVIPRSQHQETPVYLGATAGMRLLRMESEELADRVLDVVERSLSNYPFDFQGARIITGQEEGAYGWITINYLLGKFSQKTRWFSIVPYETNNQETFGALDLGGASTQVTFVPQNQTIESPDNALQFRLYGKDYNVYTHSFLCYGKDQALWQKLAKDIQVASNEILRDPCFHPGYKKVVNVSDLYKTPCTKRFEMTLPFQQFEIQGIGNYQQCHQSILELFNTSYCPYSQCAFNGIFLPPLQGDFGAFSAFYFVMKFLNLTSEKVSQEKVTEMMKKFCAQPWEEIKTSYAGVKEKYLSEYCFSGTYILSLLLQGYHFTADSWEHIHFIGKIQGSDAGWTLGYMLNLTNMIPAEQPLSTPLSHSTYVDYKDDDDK
Protocol: The inhibition by antibodies of the enzymatic activity of soluble CD39 protein produced was evaluated using Cell Titer Glo™ (Promega, reference G7571) that allows assessment of ATP hydrolysis through use of a reagent that generates a luminescent signal proportional to the amount of ATP present. In this way, inhibition of the soluble-CD39-meidatd ATP hydrolysis can be assessed. Briefly, dose ranges of anti-CD39 antibodies from 100 μg/ml to 6×10^−3 μg/ml were incubated with 400 ng/ml of soluble recombinant human CD39 protein having the amino acid sequence described in the Methods section (SEQ ID NO: 39), for 1 h at 37° C. 20 μM ATP was added to the plates for 30 additional minutes at 37° C. before addition of CTG (Cell Titer Glo) reagent. Emitted light was quantified using an Enspire™ luminometer after a short incubation period of 5 min in the dark. Anti-CD39 antibody efficacy was determined by comparing emitted light in presence of antibody with ATP alone (maximal light emission) and ATP together with soluble CD39 protein (minimal light emission).

[2] = target: T2, CD39 expressed by Ramos human lymphoma cells (Homo sapiens, UniProt P49961); experiment: Inhibition of the enzymatic activity of cellular CD39, Ramos cells (Cell Titer Glo); format: cell-based
T2 construct: host or cells: Ramos human lymphoma cells
T2 sequence (P49961 1-510): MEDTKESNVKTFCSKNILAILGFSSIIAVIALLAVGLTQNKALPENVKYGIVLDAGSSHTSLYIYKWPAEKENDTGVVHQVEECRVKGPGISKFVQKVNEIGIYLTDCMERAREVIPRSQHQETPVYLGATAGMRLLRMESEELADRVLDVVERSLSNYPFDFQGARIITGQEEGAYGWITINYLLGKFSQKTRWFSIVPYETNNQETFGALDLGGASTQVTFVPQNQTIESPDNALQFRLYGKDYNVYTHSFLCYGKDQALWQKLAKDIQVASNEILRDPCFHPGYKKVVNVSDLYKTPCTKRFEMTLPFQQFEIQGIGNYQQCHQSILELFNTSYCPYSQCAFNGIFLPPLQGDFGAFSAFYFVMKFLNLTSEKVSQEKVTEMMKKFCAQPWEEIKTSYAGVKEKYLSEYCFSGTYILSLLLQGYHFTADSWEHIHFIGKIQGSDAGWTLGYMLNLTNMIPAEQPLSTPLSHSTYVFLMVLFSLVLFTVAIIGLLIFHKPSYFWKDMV
Protocol: (§1) The inhibition of the CD39 enzymatic activity in CD39-expressing cells by antibodies was evaluated using Cell Titer Glo™ (Promega, reference G7571) that allows assessment of ATP hydrolysis through use of a reagent that generates a luminescent signal proportional to the amount of ATP present. The assay was thus designed to permit assessment of the inhibition of ATP hydrolyzed by CD39 in the cell culture supernatant. Briefly, 5×10^4 Ramos human lymphoma cells, 5×10^3 human CD39-, cynomolgus CD39- and mouse CD39-expressing CHO cells, were incubated 1 hour at 37° C. with anti-CD39 antibodies from 30 μg/ml to 5×10^−4 μg/ml. Cells were then incubated with 20 μM ATP for 1 additional hour at 37° C. Plates were centrifuged for 2 min at 400 g and 50 μl cell supernatant are transferred in a luminescence microplate (white wells). 50 μl CellTiter-Glo® Reagent (CTG) was added to the supernatant and emitted light was quantified after a 5 min incubation in the dark using a Enspire™ luminometer. Anti-CD39 antibody efficacy was determined by comparing emitted light in presence of antibody with ATP alone (maximal light emission) and ATP together with cells (minimal light emission).

[3] = tested on: cynomolgus CD39-expressing CHO cells; experiment: Inhibition of the enzymatic activity of cellular CD39, CHO-cyCD39 cells; format: cell-based; details: result in words
Protocol: as §1

[4] = target: T3, human Ramos lymphoma cells (Homo sapiens, UniProt P49961); experiment: Antibody titration by flow cytometry on Ramos cells; format: binding
T3 construct: host or cells: Ramos human lymphoma cells
T3 sequence (P49961 1-510): T2 sequence (P49961 1-510)
Protocol: Cells were incubated with various concentration of unlabeled anti-CD39 antibody from 30 μg/ml to 5×10^−4 μg/ml, for 30 minutes at 4° C. After washes, cells were incubated with Goat anti-mouse H+L labeled secondary antibody for 30 min at 4° C.

[5] = target: T4, Human CD39-L1, also known as NTPDase2 or ENTPD2 (Homo sapiens, UniProt Q9Y5L3); experiment: ELISA titration on CD39-L1; format: binding; details: coated recombinant protein, OD=450
T4 sequence (Q9Y5L3 1-472 isoform Q9Y5L3-2): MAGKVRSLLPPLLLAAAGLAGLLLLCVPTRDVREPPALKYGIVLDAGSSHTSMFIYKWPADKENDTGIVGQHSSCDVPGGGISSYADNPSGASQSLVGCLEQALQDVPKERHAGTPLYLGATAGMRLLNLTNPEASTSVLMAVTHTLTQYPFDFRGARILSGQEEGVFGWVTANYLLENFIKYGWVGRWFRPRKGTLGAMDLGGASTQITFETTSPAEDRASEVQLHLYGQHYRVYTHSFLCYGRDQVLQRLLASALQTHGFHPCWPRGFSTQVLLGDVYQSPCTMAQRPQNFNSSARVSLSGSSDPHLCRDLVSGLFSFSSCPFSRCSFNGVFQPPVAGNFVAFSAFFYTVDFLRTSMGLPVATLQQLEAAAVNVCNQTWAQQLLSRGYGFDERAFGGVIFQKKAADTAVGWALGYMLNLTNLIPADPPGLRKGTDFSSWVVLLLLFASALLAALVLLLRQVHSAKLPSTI
Protocol: Wells were washed in TBS Tween 20, and further saturated 2H at RT in TBS Blocking buffer. Dose range concentration of primary antibody was incubated in TBS blocking buffer for 2 h at RT. Wells were washed in TBS Tween 20. […] Optical density was measured on Enspire™ at OD=450.

B1: I-394: anti-CD39 antibody, VH SEQ ID NO: 3, VL SEQ ID NO: 4; heavy and light chains SEQ ID NOS: 37 and 38 (antibody)
heavy: EVQLQQSGPELVKPGASVKMSCKASGYTFTDYNMHWVKQSHGRTLEWIGYIVPLNGGSTFNQKFKGRATLTVNTSSRTAYMELRSLTSEDSAAYYCARGGTRFAYWGQGTLVTVSAASTKGPSVFPLAPSSKSTSGGTAALGCLVKDYFPEPVTVSWNSGALTSGVHTFPAVLQSSGLYSLSSVVTVPSSSLGTQTYICNVNHKPSNTKVDKRVEPKSCDKTHTCPPCPAPEAEGAPSVFLFPPKPKDTLMISRTPEVTCVVVDVSHEDPEVKFNWYVDGVEVHNAKTKPREEQYNSTYRVVSVLTVLHQDWLNGKEYKCKVSNKALPSSIEKTISKAKGQPREPQVYTLPPSREEMTKNQVSLTCLVKGFYPSDIAVEWESNGQPENNYKTTPPVLDSDGSFFLYSKLTVDKSRWQQGNVFSCSVMHEALHNHYTQKSLSLSPGK
light: DIVLTQSPASLAVSLGQRATISCRASESVDNFGVSFMYWFQQKPGQPPNLLIYGASNQGSGVPARFRGSGSGTDFSLNIHPMEADDTAMYFCQQTKEVPYTFGGGTKLEIKRTVAAPSVFIFPPSDEQLKSGTASVVCLLNNFYPREAKVQWKVDNALQSGNSQESVTEQDSKDSTYSLSSTLTLSKADYEKHKVYACEVTHQGLSSPVTKSFNRGEC
modifications: Chimeric homo sapiens mus musculus
For B1, the “maximum inhibition achieved, soluble CD39” value ([1]; 400 ng/ml soluble CD39, 20 μM ATP) was 74.9%, the “inhibition of ATPase activity of soluble CD39 when spiked into negative hybridoma supernatants” value ([1]; antibody added to hybridoma supernatants negative for sCD39 inhibition) was “did not restore the ability of negative supernatants to inhibit ATPase activity of CD39” and the “inhibition of ATPase activity after purification from negative supernatant” value ([1]; antibody purified from the negative supernatant with Protein A coated beads) was “again able to inhibit”. For the same molecule, the “inhibition of the enzymatic (ATPase) activity of soluble CD39 protein” value ([1]; result in words) was “strong inhibition; also recorded: inhibit soluble CD39; also recorded: inhibits the enzymatic activity; also recorded: highly potent at blocking the enzymatic activity”, the “maximum inhibition achieved, cellular CD39” value ([2]; Ramos cells, 20 μM ATP) was 81.6% and the “blocking CD39 enzymatic activity in tumor (Ramos) cells” value ([2]; result in words) was “highly potent at blocking CD39 enzymatic activity”. For the same molecule, the “blocking CD39 enzymatic activity in cells expressing cynomolgus CD39 (CHO-cyCD39)” value [3] was “blocks CD39 enzymatic activity; also recorded: highly potent at blocking CD39 enzymatic activity”, the “binding to Ramos lymphoma cells” value [4] was “bound; also recorded: binds” and the “binding to CD39-L1 in ELISA” value [5] was “not to any of the human isoforms”.
